Source: PMC3183022 (Molecular Biology of the Cell, 2011)
Blank lines part the entries; values can stand above or below the binder they belong to.

Columns and labels:
[1] = target: His-tagged retrolinkin (aa 31–460) (mouse, UniProt Q8BHE4 31-460); assay: pull-down
[2] = target: mouse retrolinkin amino-terminus (amino acids 31–460) fused to GST (mouse, UniProt Q8BHE4 31-460); assay: pull-down
mouse retrolinkin amino-terminus (amino acids 31–460) fused to GST, sequence (Q8BHE4 31-460): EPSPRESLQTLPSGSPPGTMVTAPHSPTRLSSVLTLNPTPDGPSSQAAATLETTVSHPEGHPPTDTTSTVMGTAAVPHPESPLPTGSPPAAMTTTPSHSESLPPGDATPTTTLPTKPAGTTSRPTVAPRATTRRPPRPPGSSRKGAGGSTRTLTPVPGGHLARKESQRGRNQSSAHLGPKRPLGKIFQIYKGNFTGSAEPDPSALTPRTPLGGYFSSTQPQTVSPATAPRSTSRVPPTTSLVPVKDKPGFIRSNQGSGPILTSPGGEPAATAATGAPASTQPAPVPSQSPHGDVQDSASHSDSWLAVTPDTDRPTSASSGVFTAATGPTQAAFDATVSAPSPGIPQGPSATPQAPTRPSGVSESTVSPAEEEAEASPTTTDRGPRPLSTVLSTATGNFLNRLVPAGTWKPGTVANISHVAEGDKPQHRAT

His-tagged retrolinkin (aa 31–460), sequence (Q8BHE4 31-460): as above

binding result [1]: binds
B1: GST-tagged endophilin A1 SH3 domain (aa 295–346) (domain or fragment)
chain: not shown

binding result [2]: binds
B2: recombinant His-tagged endophilin A1 (natural protein, mouse, UniProt Q62420 1-352, looked up)
chain: MSVAGLKKQFHKATQKVSEKVGGAEGTKLDDDFKEMERKVDVTSRAVMEIMTKTIEYLQPNPASRAKLSMINTMSKIRGQEKGPGYPQAEALLAEAMLKFGRELGDDCNFGPALGEVGEAMRELSEVKDSLDMEVKQNFIDPLQNLHDKDLREIQHHLKKLEGRRLDFDYKKKRQGKIPDEELRQALEKFDESKEIAESSMFNLLEMDIEQVSQLSALVQAQLEYHKQAVQILQQVTVRLEERIRQASSQPRREYQPKPRMSLEFATGDSTQPNGGLSHTGTPKPPGVQMDQPCCRALYDFEPENEGELGFKEGDIITLTNQIDENWYEGMLHGQSGFFPINYVEILVALPH
